Test results published in the supplement of paper PMC10126150.
± gives the standard deviation of the averaged measurements.

Test system: ATP
Assay: switch fluorescence ratio, 500 uM ATP over buffer (Cy3 cluster intensity, sum of 5 cycles each) (fold (ratio)); higher = stronger signal-on switching upon ATP binding; sequences stand for … in TCGTCGGCAGCGTCAGATGTGTATAAGAGACAGTTTTTTTTTTTTTTTTTTTTTTTTT…TC
Settings: aptamer strand: ATP DNA aptamer (quencher-CACCTGGGGGAGTATTGCGGAGGAAGG + anchor), 100 nM annealed; ATP concentration: 500 uM
Outline: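 Between each of five buffer/ATP cycles, the flow-cell was stripped with NaOH and re-annealed. Each cycle imaged Cy3-labelled switching-strand clusters, annealed to 100 nM quencher-labelled ATP aptamer on a modified Illumina MiSeq flow-cell, first in selection buffer and then after 15 min with 500 uM ATP at 22 °C. The fluorescence ratio is summed target-cycle over summed buffer-cycle Cy3 intensity per cluster, averaged per switch-domain sequence, with clusters outside 100-1000 RFU excluded.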
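Note: ATP exposure 15 min at 22 °C before imaging.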

| Sequence | switch fluorescence ratio |
| --- | --- |
| ATTAGGTAAT | 0.999 ± 0.011 |
| ATTAGGTACG | 1.02 ± 0.038 |
| ATTAGGTGGG | 1.05 ± 0.068 |
| ATTAGTAGCA | 1 ± 0.014 |
| ATTAGTCCGA | 0.9917 ± 0.0089 |
| ATTATACTTC | 1.04 ± 0.013 |
| ATTATATTCT | 1 ± 0.038 |
| ATTATCTTGG | 1.05 ± 0.064 |
| ATTATGAATT | 1.01 ± 0.021 |
| ATTATGGAGG | 0.968 ± 0.016 |
| ATTATGGCGC | 0.967 ± 0.0049 |
| ATTATGGCTG | 1.07 ± 0.011 |
| ATTATGGTAT | 1.02 ± 0.04 |
| ATTATGGTGG | 1.16 ± 0.26 |
| ATTATGTTTG | 1.002 ± 0.0097 |
| ATTATTAATG | 0.9917 ± 0.008 |
| ATTATTAGAA | 0.9912 ± 0.0034 |
| ATTATTATTG | 0.981 ± 0.041 |
| ATTATTCAGT | 0.997 ± 0.018 |
| ATTATTCTTT | 1.01 ± 0.061 |
| ATTATTGGTG | 1.018 ± 0.0046 |
| ATTATTTATC | 0.985 ± 0.088 |
| ATTCAAGTT | 0.999 ± 0.034 |
| ATTCACACGC | 1.06 ± 0.017 |
| ATTCACTTAG | 1.09 ± 0.011 |
| ATTCAGACCT | 1.39 ± 0.019 |

| Sequence | switch fluorescence ratio |
| --- | --- |
| ATTCAGATCT | 1 ± 0.034 |
| ATTCAGGGCT | 1.01 ± 0.013 |
| ATTCAGGGGG | 1.07 ± 0.028 |
| ATTCAGTAAA | 1 ± 0.022 |
| ATTCAGTTGC | 1.08 ± 0.072 |
| ATTCATTCAG | 0.9865 ± 0.0047 |
| ATTCATTTTG | 1.019 ± 0.0048 |
| ATTCCAAGGA | 0.9853 ± 0.0019 |
| ATTCCAGACG | 1.01 ± 0.024 |
| ATTCCGGGGA | 1.23 ± 0.29 |
| ATTCCGGTGG | 0.989 ± 0.052 |
| ATTCCTCTGG | 1.2 ± 0.018 |
| ATTCGAAGGT | 1.004 ± 0.0044 |
| ATTCGAGAAG | 0.997 ± 0.018 |
| ATTCGAGTGT | 0.984 ± 0.018 |
| ATTCGCTTCT | 1.02 ± 0.013 |
| ATTCGGCGGA | 1.03 ± 0.068 |
| ATTCGGGGG | 0.927 ± 0.064 |
| ATTCGGGTTT | 1.05 ± 0.066 |
| ATTCGTAGTG | 1.004 ± 0.0016 |
| ATTCGTCATA | 1.04 ± 0.075 |
| ATTCGTTACT | 1.03 ± 0.051 |
| ATTCGTTTCT | 0.97 ± 0.013 |
| ATTCGTTTTC | 1.02 ± 0.024 |
| ATTCTATCGT | 1.01 ± 0.015 |
| ATTCTCATTG | 0.982 ± 0.038 |

| Sequence | switch fluorescence ratio |
| --- | --- |
| ATTCTGGTGC | 1.12 ± 0.025 |
| ATTCTTATTT | 0.998 ± 0.028 |
| ATTCTTTGG | 0.9676 ± 0.0024 |
| ATTGAAAGAG | 1.21 ± 0.28 |
| ATTGAAAGGC | 1.29 ± 0.42 |
| ATTGAAATTT | 1.05 ± 0.093 |
| ATTGAACGGG | 1.02 ± 0.016 |
| ATTGACTTTT | 1 ± 0.025 |
| ATTGAGATGC | 0.938 ± 0.014 |
| ATTGAGCCAG | 1.03 ± 0.023 |
| ATTGAGGAGG | 1.02 ± 0.023 |
| ATTGATACTA | 1.03 ± 0.021 |
| ATTGATATCC | 0.987 ± 0.043 |
| ATTGATGTTT | 1.01 ± 0.024 |
| ATTGATTGCG | 0.989 ± 0.013 |
| ATTGCAATGT | 1.036 ± 0.0055 |
| ATTGCCCGTC | 0.992 ± 0.038 |
| ATTGCGGTTT | 0.991 ± 0.032 |
| ATTGCTCTTT | 1.0037 ± 0.00058 |
| ATTGCTTTTT | 0.9834 ± 0.0066 |
| ATTGGAACGC | 1.03 ± 0.012 |
| ATTGGACTAC | 1.07 ± 0.03 |
| ATTGGAGTTA | 0.999 ± 0.012 |
| ATTGGATTCA | 1.022 ± 0.0023 |
| ATTGGCAGTG | 1 ± 0.021 |
| ATTGGCATCT | 0.9925 ± 0.0079 |

| Sequence | switch fluorescence ratio |
| --- | --- |
| ATTGGCCATC | 0.997 ± 0.0048 |
| ATTGGCCCAT | 0.9642 ± 0.0017 |
| ATTGGCCGCC | 0.991 ± 0.042 |
| ATTGGGAATA | 0.986 ± 0.029 |
| ATTGGGAGTA | 0.988 ± 0.0099 |
| ATTGGGATCC | 1.02 ± 0.029 |
| ATTGGGCAAT | 1.054 ± 0.0023 |
| ATTGGGCTGT | 0.993 ± 0.016 |
| ATTGGGTGTG | 0.987 ± 0.027 |
| ATTGGGTTGG | 0.998 ± 0.019 |
| ATTGGTGCGT | 1.0357 ± 0.0007 |
| ATTGGTGGGG | 0.982 ± 0.033 |
| ATTGTAAAGC | 0.9935 ± 0.0083 |
| ATTGTAGGAG | 0.9966 ± 0.0058 |
| ATTGTCGACT | 0.9681 ± 0.0045 |
| ATTGTCGGCT | 1.05 ± 0.18 |
| ATTGTGAAAT | 0.999 ± 0.0025 |
| ATTGTGCAGG | 0.998 ± 0.0025 |
| ATTGTGCCTG | 1.083 ± 0.0093 |
| ATTGTGCGGC | 1.01 ± 0.027 |
| ATTGTGGGGA | 0.985 ± 0.048 |
| ATTGTGTTCC | 1.05 ± 0.0057 |
| ATTGTTAATG | 0.98 ± 0.046 |
| ATTGTTATCT | 1 ± 0.013 |
| ATTGTTCCGT | 1.02 ± 0.021 |
| ATTGTTGGTG | 0.986 ± 0.024 |

| Sequence | switch fluorescence ratio |
| --- | --- |
| ATTGTTGGTT | 0.974 ± 0.019 |
| ATTGTTGTGT | 0.9992 ± 0.0099 |
| ATTGTTTCAG | 0.976 ± 0.02 |
| ATTGTTTGCG | 0.966 ± 0.035 |
| ATTGTTTGTC | 0.996 ± 0.064 |
| ATTTAAATTG | 1.02 ± 0.052 |
| ATTTAAGAAT | 1.022 ± 0.0061 |
| ATTTAAGGAC | 1.04 ± 0.032 |
| ATTTAATAAT | 0.985 ± 0.018 |
| ATTTACACGC | 1.02 ± 0.02 |
| ATTTACCAGG | 1.18 ± 0.26 |
| ATTTACTAGA | 1.004 ± 0.0042 |
| ATTTACTTCT | 1.04 ± 0.015 |
| ATTTAGACTT | 1.039 ± 0.01 |
| ATTTAGAGGT | 0.965 ± 0.043 |
| ATTTAGCCTA | 0.9758 ± 0.0079 |
| ATTTAGGTCA | 0.983 ± 0.011 |
| ATTTAGTACA | 0.973 ± 0.011 |
| ATTTAGTCGA | 0.9519 ± 0.001 |
| ATTTAGTTGT | 1.03 ± 0.03 |
| ATTTATACGC | 1.06 ± 0.038 |
| ATTTATACGG | 1.02 ± 0.015 |
| ATTTATATTG | 0.989 ± 0.05 |
| ATTTATGATA | 0.99 ± 0.008 |
| ATTTATGGTG | 0.973 ± 0.031 |
| ATTTATGTGG | 0.998 ± 0.02 |

| Sequence | switch fluorescence ratio |
| --- | --- |
| ATTTATGTTC | 0.994 ± 0.033 |
| ATTTATTTTA | 1.01 ± 0.012 |
| ATTTCAATTA | 1.01 ± 0.065 |
| ATTTCACAAT | 0.9798 ± 0.0028 |
| ATTTCAGTCT | 0.977 ± 0.051 |
| ATTTCATGG | 0.97 ± 0.057 |
| ATTTCCCGAT | 0.979 ± 0.012 |
| ATTTCTAGGA | 0.987 ± 0.015 |
| ATTTCTATCC | 1.09 ± 0.12 |
| ATTTCTGGGT | 0.9885 ± 0.0082 |
| ATTTCTTGG | 0.958 ± 0.031 |
| ATTTGAAGTT | 0.975 ± 0.043 |
| ATTTGACGGG | 1.03 ± 0.047 |
| ATTTGACTTT | 1.04 ± 0.031 |
| ATTTGAGTGC | 0.966 ± 0.002 |
| ATTTGAGTTA | 1 ± 0.056 |
| ATTTGCGGGC | 1.07 ± 0.11 |
| ATTTGGATGG | 0.985 ± 0.023 |
| ATTTGGCTGG | 0.986 ± 0.015 |
| ATTTGGGCCA | 1.02 ± 0.022 |
| ATTTGGGGTC | 0.9644 ± 0.0056 |
| ATTTGGGGTT | 0.997 ± 0.031 |
| ATTTGGTAGG | 1 ± 0.012 |
